B1: HDV Ribozyme (parent)
chain: GGCCGGCAUGGUCCCAGCCUCCUCGCUGGCGCCGGCUGGGCAACAUUCCGAGGGGACCGUCCCCUCGGUAAUGGCGAAUGGGACCCA

Variants of: B1
Experiment: self-cleavage, relative activity (ratio to wild type); higher = more cleavage; co-transcriptional

Row | Variant | self-cleavage
1 | G1U C19G | 0.348
2 | G2A C13U | 0.058
3 | G2A G11C | 0.0519
4 | G1U U72C | 0.237
5 | G1U U72A | 0.466
6 | G2A A71G | 0.241
7 | G2A A71C | 0.13
8 | G2A G10C | 0.105
9 | G2A G10U | 0.0837
10 | G1U G76C | 0.277
11 | G1U G76U | 0.359
12 | G1U G31C | 0.356
13 | G1U G31U | 0.385
14 | G1C C22G | 0
15 | G1C C22A | 0.203
16 | G1U G81U | 0.41
17 | G1U G81C | 0.326
18 | G2A G5C | 0.0419
19 | G2A C66G | 0.213
20 | G2A C66A | 0.194
21 | G1C G67A | 0.0898
22 | G1C G67U | 0.0739
23 | G1C G67C | 0.111
24 | G1U C48A | 0.465

Row | Variant | self-cleavage
25 | G2A C21U | 0.0161
26 | G2A C21A | 0.0158
27 | G2A G68A | 0.185
28 | G2A G68C | 0.177
29 | G2A G68U | 0.0645
30 | G1C G10U | 0.143
31 | G1U G55U | 0.455
32 | G1U G55A | 0.208
33 | G2A G38C | 0.07
34 | G2A G38A | 0.0314
35 | G1U A83C | 0.259
36 | G1U A83G | 0.461
37 | G1C G74A | 0.0678
38 | G1C G74C | 0
39 | G1C C36A | 0.151
40 | G1U C49U | 0.391
41 | G1U C4U | 0.251
42 | G1U C4A | 0.277
43 | G1U U20A | 0.289
44 | G1U U20G | 0.285
45 | G1U C85A | 0.361
46 | G1U C85U | 0.321
47 | G2A C58G | 0.151
48 | G2A C24U | 0.101

Row | Variant | self-cleavage
49 | G1C C61G | 0.0504
50 | G1C C61U | 0.185
51 | G2A A56G | 0.242
52 | G1U C3U | 0.696
53 | G1U C3A | 0.654
54 | G2A C3U | 0.567
55 | G2A C3A | 0.0478
56 | G1U G28A | 0.292
57 | G1U G28C | 0.185
58 | G2A G29C | 0.0292
59 | G2A G29U | 0.0205
60 | G1C G50U | 0.231
61 | G1C G50C | 0.342
62 | G1C G50A | 0.277
63 | G1C C33U | 0
64 | G1C C33G | 0
65 | G2A C62G | 0.086
66 | G2A C62A | 0.137
67 | G1C C49U | 0.145
68 | G1C C49G | 0.0898
69 | G2A G50U | 0.0779
70 | G2A G50C | 0.205
71 | G2A C61G | 0.102
72 | G2A C61A | 0.351

Row | Variant | self-cleavage
73 | G2A C61U | 0.149
74 | G1C U27G | 0.277
75 | G1C U27A | 0.185
76 | G2A G74A | 0.0457
77 | G1U G17U | 0.309
78 | G1C G80A | 0.0405
79 | G1C G80U | 0.0484
80 | G2A G34U | 0.0449
81 | G1U A43U | 0.225
82 | G1U A43C | 0.425
83 | G1U A43G | 0.147
84 | G2A A42C | 0.0432
85 | G2A A42U | 0.0804
86 | G2A A42G | 0.0302
87 | G1U C66U | 0.296
88 | G2A C15A | 0.0382
89 | G2A C15U | 0.113
90 | G1U G80U | 0.479
91 | G1C G31C | 0
92 | G2A A51U | 0.155
93 | G2A A51C | 0.203
94 | G2A A78U | 0.0674
95 | G1U G2A | 0.262
96 | G2A C19G | 0

Row | Variant | self-cleavage
97 | G1C U69G | 0.208
98 | G1C C41U | 0.229
99 | G1C C41A | 0.123
100 | G1U G67A | 0.506
101 | G1C C63U | 0.0898
102 | G1C C64A | 0.231
103 | G1C C64G | 0.244
104 | G1C U65G | 0
105 | G1C U65A | 0
106 | G1U G59C | 0.277
107 | G1U G59A | 0.442
108 | G1U G59U | 0.451
109 | G1C C24G | 0.0462
110 | G1C C24A | 0.142
111 | G1U C36G | 0.306
112 | G1U C36U | 0.318
113 | G1U C63G | 0.453
114 | G1U C63U | 0.535
115 | G1U C63A | 0.391
116 | G1C G59U | 0.0437
117 | G1C G59A | 0.19
118 | G1C C62G | 0.0831
119 | G1C C62U | 0.282
120 | G1C C62A | 0.101

Row | Variant | self-cleavage
121 | G1U U27G | 0.522
122 | G1C U23A | 0.128
123 | G1U A16U | 0.262
124 | G1U A16C | 0.277
125 | G1U A16G | 0.256
126 | G2A C14G | 0.0773
127 | G2A C14U | 0.169
128 | G1U C18G | 0.151
129 | G1C C75G | 0.178
130 | G1C C75U | 0.227
131 | G1C G68A | 0.158
132 | G2A G76A | 0.0391
133 | G2A G76C | 0.225
134 | G1C C66U | 0.208
135 | G1C C66G | 0.128
136 | G1C C66A | 0.19
137 | G1U C24U | 0.409
138 | G1U G6U | 0.429
139 | G1C G73A | 0.201
140 | G1U C58U | 0.401
141 | G1U C58A | 0.237
142 | G1C C21A | 0
143 | G1C C21U | 0
144 | G1C C21G | 0

Row | Variant | self-cleavage
145 | G1C C48A | 0.293
146 | G1C C85A | 0.161
147 | G1U U47G | 0.405
148 | G1U C32A | 0.289
149 | G1U G68C | 0.431
150 | G2A A43U | 0.0203
151 | G1C G55A | 0.106
152 | G1U C33U | 0.436
153 | G1U C33G | 0.248
154 | G2A A8G | 0.0773
155 | G1C G6U | 0.217
156 | G2A G28A | 0.0107
157 | G1U G53C | 0.283
158 | G1U G53A | 0.32
159 | G1U G53U | 0.355
160 | G1U C86U | 0.212
161 | G1U C86G | 0.289
162 | G2A G73C | 0.0608
163 | G2A G80U | 0.0227
164 | G1C C84A | 0.166
165 | G1C C84U | 0.128
166 | G2A G35U | 0.0602
167 | G2A G35A | 0.0569

— the RNAGym collection of RNA variant scans (doi:10.7554/elife.80360)
